Measured values taken from IntAct's records for PubMed 22653441.

B1: Serine/threonine-protein kinase PAK 4 (Homo sapiens), O96013 (parent)
chain: MFGKRKKRVEISAPSNFEHRVHTGFDQHEQKFTGLPRQWQSLIEESARRPKPLVDPACITSIQPGAPKTIVRGSKGAKDGALTLLLDEFENMSVTRSNSLRRDSPPPPARARQENGMPEEPATTARGGPGKAGSRGRFAGHSEAGGGSGDRRRAGPEKRPKSSREGSGGPQESSRDKRPLSGPDVGTPQPAGLASGAKLAAGRPFNTYPRADTDHPSRGAQGEPHDVAPNGPSAGGLAIPQSSSSSSRPPTRARGAPSPGVLGPHASEPQLAPPACTPAAPAVPGPPGPRSPQREPQRVSHEQFRAALQLVVDPGDPRSYLDNFIKIGEGSTGIVCIATVRSSGKLVAVKKMDLRKQQRRELLFNEVVIMRDYQHENVVEMYNSYLVGDELWVVMEFLEGGALTDIVTHTRMNEEQIAAVCLAVLQALSVLHAQGVIHRDIKSDSILLTHDGRVKLSDFGFCAQVSKEVPRRKSLVGTPYWMAPELISRLPYGPEVDIWSLGIMVIEMVDGEPPYFNEPPLKAMKMIRDNLPPRLKNLHKVSPSLKGFLDRLLVRDPAQRATAAELLKHPFLAKAGPPASIVPLMRQNRTR

Variants of: B1
Details: with cdc42_human CDC42, P60953
cdc42_human CDC42, P60953, sequence (P60953 whole entry, looked up): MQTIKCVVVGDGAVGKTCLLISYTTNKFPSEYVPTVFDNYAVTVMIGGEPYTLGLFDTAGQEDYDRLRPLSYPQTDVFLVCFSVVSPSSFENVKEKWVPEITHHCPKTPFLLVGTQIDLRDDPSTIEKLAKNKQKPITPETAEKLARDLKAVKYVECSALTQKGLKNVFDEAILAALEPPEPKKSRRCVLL

Effect of a mutation on the interaction, disrupting interaction:
T60E
R48E
R49E
